Measurements published in patent publication US12576025B2, “Pharmaceutical parenteral composition of dual GLP1/2 agonist” (Zealand Pharma A/S, priority 2019, dated 2026).
*1 amine or outer side, *2 acyl side, *3 side chain or, on linkers, in order; H or OH if unused. Where no end group is shown, it is not given here. Side-chain parts run from the residue outwards. [ ]: non-standard residue; d: D form. The star is where a group is joined. C18 diacid = O=C(O)CCCCCCCCCCCCCCCCC(=O)*; γGlu = O=C(O)[C@H](CCC(=O)[*:2])N[*:1]; Aib = CC(C)(N)C(=O)O

Test: Physical stability via ThT fibril formation (ASSAY IVc)
Assay type: physicochemical
Parameters: key to Aggregation (ThT), no added tonicity agent / Aggregation (ThT), 270 mM mannitol: FD = Fibrillation Detected; FND = Fibrillation Not Detected
Conditions: for Aggregation (ThT), 270 mM mannitol / Aggregation (ThT), no added tonicity agent: 96 hours
Description: Samples were prepared in a total volume of 0.5 mL API (herein e.g. CPD1) stock solutions were prepared by dissolving API in demineralised water at ambient temperature (typically 25° C.) to achieve 5 and 25 mg/mL API, respectively. 8 working solutions were prepared: 1) 40 mM phosphate pH 6 and 80 μM ThT; 2) 40 mM phosphate pH 6.5 and 80 μM ThT; 3) 40 mM phosphate pH 7 and 80 μM ThT; 4) 40 mM phosphate pH 8 and 80 μM ThT; 5) 40 mM phosphate pH 6, 540 mM mannitol and 80 μM ThT; 6) 40 mM phosphate pH 6.5, 540 mM mannitol and 80 μM ThT; 7) 40 mM phosphate pH 7, 540 mM mannitol and 80 μM ThT; and 8) 40 mM phosphate pH 8, 540 mM mannitol and 80 μM ThT.
200 μL of API stock was mixed with 250 μL working solution, pH was measured and adjusted to target, followed by adding demineralised water to a final volume of 500 μL. Samples were loaded in a 96-well black fluorescence plate (clear bottom) in triplicate 3×150 μL. Data were collected at fixed intervals of 10 min, each preceded by 300 s of automixing (agitation), over a period of 96 hours at 40° C. Physical stability, expressed as lag-time of fibril formation (in hours), was defined as the intersection between two linear regressions representing the initial stable phase and the growth phase.

[1] = 2 mg/mL CPD1, 20 mM phosphate pH 6, 40° C.
[2] = 2 mg/mL CPD1, 20 mM phosphate pH 6.5, 40° C.
[3] = 2 mg/mL CPD1, 20 mM phosphate pH 7, 40° C.
[4] = 2 mg/mL CPD1, 20 mM phosphate pH 8, 40° C.
[5] = 10 mg/mL CPD1, 20 mM phosphate pH 6, 40° C.
[6] = 10 mg/mL CPD1, 20 mM phosphate pH 6.5, 40° C.
[7] = 10 mg/mL CPD1, 20 mM phosphate pH 7, 40° C.
[8] = 10 mg/mL CPD1, 20 mM phosphate pH 8, 40° C.

H[Aib]EGSFTSELATILD[ψ]QAARDFIAWLIQHKITD (H[Aib]EGSFTSELATILDK([γGlu-C18 diacid])QAARDFIAWLIQHKITD; not fully specified; printed as H[Aib]EGSFTSELATILD[ψ]QAARDFIAWLIQHKITD; also: X16: L or D lysine) [CPD1, GLP-1/GLP-2 dual agonist]
FD: Aggregation (ThT), 270 mM mannitol [1] | Aggregation (ThT), no added tonicity agent [1] | Aggregation (ThT), 270 mM mannitol [5] | Aggregation (ThT), no added tonicity agent [5]
amyloid formation was observed: Amyloid formation / fibrillation (2 and 10 mg/mL CPD1, pH 6)
no fibrillation was observed: Amyloid formation / fibrillation (2 and 10 mg/mL CPD1, pH 7 or 8)
FND: Aggregation (ThT), 270 mM mannitol [2] | Aggregation (ThT), no added tonicity agent [2] | Aggregation (ThT), 270 mM mannitol [3] | Aggregation (ThT), no added tonicity agent [3] | Aggregation (ThT), 270 mM mannitol [4] | Aggregation (ThT), no added tonicity agent [4] | Aggregation (ThT), 270 mM mannitol [6] | Aggregation (ThT), no added tonicity agent [6] | Aggregation (ThT), 270 mM mannitol [7] | Aggregation (ThT), no added tonicity agent [7] | Aggregation (ThT), 270 mM mannitol [8] | Aggregation (ThT), no added tonicity agent [8]
